From patent publication EP4722254A1 (Sunshine Guojian Pharmaceutical (Shanghai) Co., Ltd., dated 2026)
Values joined by “and” are separate entries in the source; they are usually repeats but may differ in a detail not shown here. Equal values may be shown once.

B1: anti-FGFR2/PD-1 bispecific antibody a (bispecific antibody, human IgG1, kappa)
heavy: not shown
light: EIVLTQSPATLSLSPGERATLSCRASSSVNYMYWYQQKPGQAPRPWIYLTSNRATGVPARFSGSGSGTDYTLTISSLEPEDFAVYYCQQWSSNPYTFGQGTKLEIKRTVAAPSVFIFPPSDEQLKSGTASVVCLLNNFYPREAKVQWKVDNALQSGNSQESVTEQDSKDSTYSLSSTLTLSKADYEKHKVYACEVTHQGLSSPVTKSFNRGEC
notes: Anti-FGFR2 IgG with an anti-PD-1 scFv (VL-L1-VH) on the C-terminus of each heavy chain; wild-type Fc; also called anti-FGFR2/PD-1 bispecific antibody molecule a
B2: anti-FGFR2/PD-1 bispecific antibody b (bispecific antibody, human IgG1, kappa)
heavy: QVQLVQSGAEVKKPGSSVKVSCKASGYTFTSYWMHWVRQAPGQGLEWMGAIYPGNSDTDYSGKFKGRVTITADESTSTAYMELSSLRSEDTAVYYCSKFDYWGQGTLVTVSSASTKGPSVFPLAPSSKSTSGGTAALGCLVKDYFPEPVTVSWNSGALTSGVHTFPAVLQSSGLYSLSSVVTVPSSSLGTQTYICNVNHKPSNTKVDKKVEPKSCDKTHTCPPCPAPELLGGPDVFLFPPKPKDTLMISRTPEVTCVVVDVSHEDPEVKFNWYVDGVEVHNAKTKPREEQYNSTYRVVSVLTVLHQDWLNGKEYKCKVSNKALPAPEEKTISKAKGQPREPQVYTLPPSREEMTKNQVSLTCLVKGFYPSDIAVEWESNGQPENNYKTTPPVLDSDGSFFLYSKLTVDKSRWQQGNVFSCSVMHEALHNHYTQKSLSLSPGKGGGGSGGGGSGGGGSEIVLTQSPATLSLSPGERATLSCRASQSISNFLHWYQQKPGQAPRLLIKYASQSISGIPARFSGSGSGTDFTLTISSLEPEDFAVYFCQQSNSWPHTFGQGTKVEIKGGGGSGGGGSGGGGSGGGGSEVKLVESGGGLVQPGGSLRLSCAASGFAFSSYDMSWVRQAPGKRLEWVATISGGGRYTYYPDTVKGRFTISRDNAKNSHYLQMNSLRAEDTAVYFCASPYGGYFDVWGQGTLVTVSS
light: B1 light
notes: also called anti-FGFR2/PD-1 bispecific antibody molecule b
B3: anti-FGFR2 monoclonal antibody (antibody, human IgG1, kappa, V domains shown)
VH: QVQLVQSGAEVKKPGSSVKVSCKASGYTFTSYWMHWVRQAPGQGLEWMGAIYPGNSDTDYSGKFKGRVTITADESTSTAYMELSSLRSEDTAVYYCSKFDYWGQGTLVTVSS
VL: EIVLTQSPATLSLSPGERATLSCRASSSVNYMYWYQQKPGQAPRPWIYLTSNRATGVPARFSGSGSGTDYTLTISSLEPEDFAVYYCQQWSSNPYTFGQGTKLEIKR
notes: also called positive control anti-FGFR2 monoclonal antibody; anti-FGFR2 mAb
B4: anti-FGFR2/PD-1 bispecific antibody d (bispecific antibody, human IgG1, kappa)
heavy: not shown
light: B1 light
notes: Anti-FGFR2 IgG with an anti-PD-1 scFv in VH-L1-VL order on the C-terminus of each heavy chain; also called anti-FGFR2/PD-1 bispecific antibody molecule d

Legend:
[1] = biological target: T1, PD-1 expressed on the surface of Jurkat-PD-1-NFAT-luc cells (UniProt Q15116 25-288, limits assumed); assay: cell-based or functional assay
[2] = biological target: T2, Recombinant Human-PD-1-His protein (human, UniProt Q15116 25-167, limits assumed); assay: ELISA, Human-PD-1-His coated, anti-human Fc-HRP detection
T2 construct: not shown: His tag

[3] = biological target: T3, Recombinant Human-FGFR2-His protein (human, UniProt P21802-3 22-378, limits assumed); assay: ELISA, Human-FGFR2-His coated, anti-human Fc-HRP detection
T3 construct: Bought protein; not shown: His tag

[4] = biological target: T1, PD-1 expressed on the surface of …; assay: flow cytometry on Jurkat-PD-1-NFAT-luc cells, anti-human Fab-FITC detection
FGFR2 on SNU-16 cells = FGFR2 on SNU-16 cells (human, UniProt P21802 22-821); assay: cell-based or functional assay
FGFR2 on SNU-16 cells, sequence (P21802 22-821): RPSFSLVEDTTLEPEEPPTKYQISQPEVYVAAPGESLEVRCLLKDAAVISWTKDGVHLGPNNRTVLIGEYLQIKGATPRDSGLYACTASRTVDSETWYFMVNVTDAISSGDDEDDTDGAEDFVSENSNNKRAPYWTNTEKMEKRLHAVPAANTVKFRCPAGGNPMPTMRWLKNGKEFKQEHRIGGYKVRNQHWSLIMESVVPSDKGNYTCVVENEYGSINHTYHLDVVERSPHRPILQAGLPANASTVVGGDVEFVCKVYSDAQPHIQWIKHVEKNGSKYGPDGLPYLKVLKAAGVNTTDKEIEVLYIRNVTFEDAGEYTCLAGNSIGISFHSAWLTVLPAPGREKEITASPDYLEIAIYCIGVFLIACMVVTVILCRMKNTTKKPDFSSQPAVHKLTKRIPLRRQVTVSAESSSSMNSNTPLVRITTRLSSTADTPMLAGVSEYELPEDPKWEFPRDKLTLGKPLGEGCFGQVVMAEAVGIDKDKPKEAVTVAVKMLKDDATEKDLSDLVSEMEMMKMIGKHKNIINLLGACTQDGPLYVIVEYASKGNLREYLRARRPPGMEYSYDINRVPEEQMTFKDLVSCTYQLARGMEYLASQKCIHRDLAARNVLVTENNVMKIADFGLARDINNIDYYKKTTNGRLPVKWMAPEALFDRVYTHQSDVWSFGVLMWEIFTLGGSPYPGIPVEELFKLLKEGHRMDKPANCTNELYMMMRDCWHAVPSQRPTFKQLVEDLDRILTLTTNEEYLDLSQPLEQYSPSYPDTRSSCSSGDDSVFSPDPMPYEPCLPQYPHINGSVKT

T2 sequence (Q15116 25-167 limits assumed): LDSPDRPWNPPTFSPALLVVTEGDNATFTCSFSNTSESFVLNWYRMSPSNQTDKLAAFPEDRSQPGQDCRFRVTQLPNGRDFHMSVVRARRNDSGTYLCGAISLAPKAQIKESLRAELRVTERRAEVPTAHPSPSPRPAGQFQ
T1 sequence (Q15116 25-288 limits assumed): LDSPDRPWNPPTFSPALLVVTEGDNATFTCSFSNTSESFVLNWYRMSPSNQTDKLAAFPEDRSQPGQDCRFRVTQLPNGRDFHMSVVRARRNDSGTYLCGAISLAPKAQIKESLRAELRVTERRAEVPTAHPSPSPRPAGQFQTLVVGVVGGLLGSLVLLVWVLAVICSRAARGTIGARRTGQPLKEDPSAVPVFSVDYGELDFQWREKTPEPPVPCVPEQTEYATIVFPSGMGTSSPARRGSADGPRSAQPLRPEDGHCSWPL
T3 sequence (P21802 other isoform, or with tags, fused parts or gaps limits assumed): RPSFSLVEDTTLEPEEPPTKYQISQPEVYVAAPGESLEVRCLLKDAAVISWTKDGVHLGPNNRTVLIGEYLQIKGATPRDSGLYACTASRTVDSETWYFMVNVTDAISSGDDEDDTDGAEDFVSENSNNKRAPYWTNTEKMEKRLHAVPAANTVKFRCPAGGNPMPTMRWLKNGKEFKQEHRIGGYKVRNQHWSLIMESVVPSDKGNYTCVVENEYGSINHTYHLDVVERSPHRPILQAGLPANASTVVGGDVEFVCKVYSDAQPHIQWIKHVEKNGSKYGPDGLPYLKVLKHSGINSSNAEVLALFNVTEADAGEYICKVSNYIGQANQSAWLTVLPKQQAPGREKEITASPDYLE

| Binder | IC50 for the blockade of PD-1 and PD-L1 binding (NFAT-luc reporter luminescence) [1] [nM] | EC50 [2] | EC50 [3] | EC50 [4] [nM] | EC50 of ADCC (NK cell killing of SNU-16 cells, LDH release) (FGFR2 on SNU-16 cells) [nM] |
| --- | --- | --- | --- | --- | --- |
| B1 | 0.481 | 0.122 nM and 0.16 nM | 0.0568 nM | 0.482 |  |
| B2 | 2.35 | 0.141 nM | 0.0512 nM | 0.634 | 4.62 |
| B3 |  |  | 0.0392 nM and 0.0297 nM |  | 3.03 |
| B4 |  | 0.356 nM | 0.0615 nM |  |  |
